# Legend:
# [1] = glucose inhibition measurement (residual glucosidase activity in the presence of glucose); format: biochemical
# Method: To 10 μl of 20 mM pNPG, 10 μl of 1M sodium acetate buffer solution (pH 5.0) and from 4 to 10 μl of 1M glucose (final concentration of from 20 to 50 mM) were added, followed by addition of water up to the total volume of 150 μl. Thereafter, 50 μl of the diluted enzyme sample was introduced for reacting them at 37° C. for 10 minutes. As a control, a glucose-free reaction mixture was used, and then the reaction was carried out at 37° C. for 10 minutes, in the same manner. 100 μl of each reaction mixture was mixed with 100 μl of 2% sodium carbonate solution to terminate reaction, and then the amount of liberated p-nitrophenol was colorimetrically measured at a wavelength of 450 nm.
# The ratio (%) of the colorimetric value of each reaction mixture to the colorimetric value of the control sample (glucose-free sample) was defined as the residual activity after glucose inhibition.
# (§1) By using the above-obtained culture supernatant of the P3AaBGL1 mutant strain, a diluted enzyme sample was prepared, and then the enzymatic activity of the sample was measured in accordance with the above-described activity measurement method. Further, the glucose inhibition at a final glucose concentration of from 0.1 to 200 mM and the thermostability at a warming temperature of from 50 to 75° C. were measured for evaluation.
# (§2) 11F10 strain, 22A12 strain, 28C02 strain, 29F09 strain and mutBGL1 strain selected from the mutant strains, and ASP3326 strain as the original strain were cultivated in a Sakaguchi flask containing 100 ml of YPD medium at 30° C. for two days. To each of the culture supernatants obtained by cultivating them, […] was added until 80% saturation was reached, thereby to carry out ammonium sulfate precipitation at 4° C. for 2 hours. Thereafter, centrifugation was carried out to collect pellets, and the pellets were dissolved in 10 ml of 10 mM citrate phosphate buffer solution (pH 7.0). Then, desalting and concentration were carried out by using an ultrafiltration membrane having MWCO of 100,000, thereby to recover 1 ml of a crude liquid. Thus recovered crude liquid was purified by using Hitrap QXL column to collect a fraction of a peak of pNPG activity, thereby to obtain a purified sample. Elution was carried out by using a 10 mM citrate phosphate buffer solution (pH 7.0) and a NaCl concentration gradient (0 to 1M).
# (§3) In the same manner as in Example 1, the residual glucosidase activities after glucose inhibition at a glucose concentration of from 0.1 to 200 mM were measured. Further, the residual glucosidase activities after heat treatment at a temperature of from 50 to 75° C. for 10 minutes were measured.
# [2] = thermostability measurement (residual glucosidase activity after heat treatment); format: physicochemical
# Method: To 10 μl of 20 mM pNPG, 10 μl of 1M sodium acetate buffer solution (pH 5.0) and 130 μl of water were added, and then 50 μl of a diluted enzyme sample preliminarily heat-treated at […] for 10 minutes was introduced for reacting them at 37° C. for 10 minutes. As a control, a diluted enzyme sample which was not subjected to the heat treatment was used, and then the reaction was carried out at 37° C. for 10 minutes, in the same manner. 100 μl of each reaction mixture was mixed with 100 μl of 2% sodium carbonate solution to terminate reaction, and then the amount of liberated p-nitrophenol was colorimetrically measured at a wavelength of 450 nm.
# The ratio (%) of the colorimetric value of each reaction mixture to the colorimetric value of the control sample (untreated sample) was defined as the residual activity after heat treatment.
# as §1, §2, §3
# [3] = glucosidase activity measurement of culture supernatant (pNPG); format: biochemical; conditions: Example 9, Table 11
# Method: A mutant strain which formed a large colony was selected from P3AaBGL1 mutant strain library. Then, thus selected strain and P3ASP3326 strain as the original strain were cultivated in 150 μl/well (96-well plate) of YES medium at 30° C. for two days. 50 μl of each culture supernatant was diluted by 150 μl of 50 mM acetate buffer (pH 5.0) to prepare a diluted enzyme sample. Then, the enzymatic activity of the sample was measured in accordance with the following method.
# To 10 μl of 20 mM p-nitrophenyl-β-D-glucoside (hereinafter abbreviated as pNPG), 10 μl of 1M sodium acetate buffer solution (pH 5.0) and 130 μl of water were added, and then 50 μl of the diluted enzyme sample was introduced for reacting them at 37° C. for 10 minutes. 100 μl of the reaction mixture was mixed with 100 μl of 2% sodium carbonate solution to terminate reaction, and then the amount of free p-nitrophenol was colorimetrically measured at a wavelength of 450 nm.
# The amount of enzyme that produces 1 μmol of p-nitrophenol per minute was defined as 1 U.
# The P3AaBGL1 mutant strain obtained as above was cultivated in YES medium at 30° C. for one day. 100 μl of the culture broth was inoculated on 5 ml of YPD medium (1% of yeast extract, 2% of peptone, and 2% of glucose), followed by cultivation at 30° C. for two days. Thereafter, the culture broth was centrifuged to obtain a culture supernatant.
# as §1
# [4] = compared with P3AaBGL1 / β-glucosidase without the mutation
molecule,measurement,setting,value
Q156L: modified-type P3AaBGL1 with Q156L only (protein) MKITAVIALLFSLAAASPIPVADPGVVSVSLKKRADELAFSPPFYPSPWANGQGEWAEAYQRAVAIVSQMTLDEKVNLTTGTGWELEKCVGQTGGVPRLNIGGMCLQDSPLGIRDSDYNSAFPAGVNVAATWDKNLAYLRGQAMGQEFSDKGIDVLLGPAAGPLGRSPDGGRNWEGFSPDPALTGVLFAETIKGIQDAGVVATAKHYILNEQEHFRQVAEAAGYGFNISDTISSNVDDKTIHEMYLWPFADAVRAGVGAIMCSYNQINNSYGCQNSYTLNKLLKAELGFQGFVMSDWGAHHSGVGSALAGLDMSMPGDITFDSATSFWGTNLTIAVLNGTVPQWRVDDMAVRIMAAYYKVGRDRLYQPPNFSSWTRDEYGFKYFYPQEGPYEKVNHFVNVQRNHSEVIRKLGADSTVLLKNNNALPLTGKERKVAILGEDAGSNSYGANGCSDRGCDNGTLAMAWGSGTAEFPYLVTPEQAIQAEVLKHKGSVYAITDNWALSQVETLAKQASVSLVFVNSDAGEGYISVDGNEGDRNNLTLWKNGDNLIKAAANNCNNTIVVIHSVGPVLVDEWYDHPNVTAILWAGLPGQESGNSLADVLYGRVNPGAKSPFTWGKTREAYGDYLVRELNNGNGAPQDDFSEGVFIDYRGFDKRNETPIYEFGHGLSYTTFNYSGLHIQVLNASSNAQVATETGAAPTFGQVGNASDYVYPEGLTRISKFIYPWLNSTDLKASSGDPYYGVDTAEHVPEGATDGSPQPVLPAGGGSGGNPRLYDELIRVSVTVKNTGRVAGDAVPQLYVSLGGPNEPKVVLRKFDRLTLKPSEETVWTTTLTRRDLSNWDVAAQDWVITSYPKKVHVGSSSRQLPLHAALPKVQ,"Residual glucosidase activity, Glc 0 mM","[1]; Example 9, glucose 0 mM (reference set to 100)",100%
same,"Residual glucosidase activity, Glc 1 mM","[1]; Example 9, glucose 1 mM",92.8%
same,"Residual glucosidase activity, Glc 5 mM","[1]; Example 9, glucose 5 mM",64.9%
same,"Residual glucosidase activity, Glc 10 mM","[1]; Example 9, glucose 10 mM",46.8%
same,"Residual glucosidase activity, Glc 20 mM","[1]; Example 9, glucose 20 mM",31.5%
same,"Residual glucosidase activity, Glc 50 mM","[1]; Example 9, glucose 50 mM",15.5%
same,"Residual glucosidase activity, Glc 100 mM","[1]; Example 9, glucose 100 mM",8.8%
same,"Residual glucosidase activity, Glc 200 mM","[1]; Example 9, glucose 200 mM",5.4%
same,resistance to glucose inhibition (in words),[1]; [4],decrease
same,"Residual glucosidase activity, Temp 50° C.","[2]; Example 9, 10 minutes at 50° C.",93.9%
same,"Residual glucosidase activity, Temp 55° C.","[2]; Example 9, 10 minutes at 55° C.",89.7%
same,"Residual glucosidase activity, Temp 60° C.","[2]; Example 9, 10 minutes at 60° C.",83.9%
same,"Residual glucosidase activity, Temp 65° C.","[2]; Example 9, 10 minutes at 65° C.",46.0%
same,"Residual glucosidase activity, Temp 70° C.","[2]; Example 9, 10 minutes at 70° C.",6.3%
same,"Residual glucosidase activity, Temp 73° C.","[2]; Example 9, 10 minutes at 73° C.",0.9%
same,"Residual glucosidase activity, Temp 75° C.","[2]; Example 9, 10 minutes at 75° C.",1.4%
same,"Residual glucosidase activity, Untreated","[2]; Example 9, no heat treatment (reference set to 100)",100%
same,thermostability (in words),[2]; [4],decrease
same,Activity,[3],507 mU/ml
